The values that follow come from patent US20260250420A1 (SICHUAN KELUN BIOTECH BIOPHARMACEUTICAL, published 2026).

For test [1], the target named is T1, monkey PTK7 protein (extracellular sequence of monkey PTK7 with C-terminal 6×His tag) (monkey).
T1 chain: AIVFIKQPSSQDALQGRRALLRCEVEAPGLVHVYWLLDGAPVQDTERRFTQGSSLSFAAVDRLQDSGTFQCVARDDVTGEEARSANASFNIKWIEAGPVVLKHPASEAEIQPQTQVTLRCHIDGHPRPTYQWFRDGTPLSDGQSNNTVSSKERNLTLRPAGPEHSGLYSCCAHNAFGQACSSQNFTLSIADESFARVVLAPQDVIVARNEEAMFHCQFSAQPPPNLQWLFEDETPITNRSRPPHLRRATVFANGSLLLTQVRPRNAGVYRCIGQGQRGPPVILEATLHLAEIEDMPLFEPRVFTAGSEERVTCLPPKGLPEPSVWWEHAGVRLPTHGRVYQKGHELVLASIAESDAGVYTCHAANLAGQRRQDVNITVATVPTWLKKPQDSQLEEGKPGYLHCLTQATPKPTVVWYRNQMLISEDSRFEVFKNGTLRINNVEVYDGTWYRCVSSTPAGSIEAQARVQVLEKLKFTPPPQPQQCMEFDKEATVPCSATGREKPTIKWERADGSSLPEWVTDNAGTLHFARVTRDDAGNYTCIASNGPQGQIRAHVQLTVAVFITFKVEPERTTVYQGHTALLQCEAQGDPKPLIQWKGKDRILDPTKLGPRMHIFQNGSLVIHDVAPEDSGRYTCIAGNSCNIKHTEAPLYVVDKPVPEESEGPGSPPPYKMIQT
The experiment in a line: ELISA, coated monkey PTK7 protein 1 µg/ml. The procedure: Original data was imported into software for nonlinear curve fitting, and EC₅₀ of binding of each antibody to human PTK7 and monkey PTK7 was calculated, respectively. As shown in Table 1 and FIGS. 1A-1B, the screened antibodies could be bound to the human and monkey PTK7 proteins with affinity higher than that of the control antibody Hu24.

The target of test [2] is T2, human Fc receptor protein FcRn (human, UniProt P55899 24-297; P61769 21-119, biotinylated).
T2 construct: Biotinylated protein captured on SA sensors
T2 sequence (P55899 24-297 limits assumed, form in doubt, chain 1 of 2): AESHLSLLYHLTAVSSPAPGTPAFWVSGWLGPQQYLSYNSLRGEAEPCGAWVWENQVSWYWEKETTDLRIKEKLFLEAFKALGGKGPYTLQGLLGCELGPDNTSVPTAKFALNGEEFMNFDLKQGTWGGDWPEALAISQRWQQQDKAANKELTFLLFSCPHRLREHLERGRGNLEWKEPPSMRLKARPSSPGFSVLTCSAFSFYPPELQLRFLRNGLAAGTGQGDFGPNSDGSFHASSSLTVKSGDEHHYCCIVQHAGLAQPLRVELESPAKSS
T2 sequence (P61769 21-119 limits assumed, form in doubt, chain 2 of 2): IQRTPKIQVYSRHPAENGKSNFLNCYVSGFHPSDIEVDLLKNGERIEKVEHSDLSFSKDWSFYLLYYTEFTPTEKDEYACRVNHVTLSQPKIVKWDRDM
Briefly: BLI (ForteBio), biotinylated receptor on SA sensor, antibody from 5,000 nM, 1:1 global fit. The text has this: The dynamic affinity of the antibodies 101A6HZ, 101A6HZm and Hu24 with human Fc receptor proteins CD16a, CD32a, CD32b, CD64 and FcRn was detected through ForteBio (Pall life sciences).

Test [3] deals with T3, human PTK7 protein (extracellular sequence of human PTK7 with C-terminal 6×His tag) (human, UniProt Q13308 31-704).
T3 construct: extracellular domain; Expressed transiently in HEK293 cells; also called human PTK7-His; human PTK7-His protein
T3 sequence: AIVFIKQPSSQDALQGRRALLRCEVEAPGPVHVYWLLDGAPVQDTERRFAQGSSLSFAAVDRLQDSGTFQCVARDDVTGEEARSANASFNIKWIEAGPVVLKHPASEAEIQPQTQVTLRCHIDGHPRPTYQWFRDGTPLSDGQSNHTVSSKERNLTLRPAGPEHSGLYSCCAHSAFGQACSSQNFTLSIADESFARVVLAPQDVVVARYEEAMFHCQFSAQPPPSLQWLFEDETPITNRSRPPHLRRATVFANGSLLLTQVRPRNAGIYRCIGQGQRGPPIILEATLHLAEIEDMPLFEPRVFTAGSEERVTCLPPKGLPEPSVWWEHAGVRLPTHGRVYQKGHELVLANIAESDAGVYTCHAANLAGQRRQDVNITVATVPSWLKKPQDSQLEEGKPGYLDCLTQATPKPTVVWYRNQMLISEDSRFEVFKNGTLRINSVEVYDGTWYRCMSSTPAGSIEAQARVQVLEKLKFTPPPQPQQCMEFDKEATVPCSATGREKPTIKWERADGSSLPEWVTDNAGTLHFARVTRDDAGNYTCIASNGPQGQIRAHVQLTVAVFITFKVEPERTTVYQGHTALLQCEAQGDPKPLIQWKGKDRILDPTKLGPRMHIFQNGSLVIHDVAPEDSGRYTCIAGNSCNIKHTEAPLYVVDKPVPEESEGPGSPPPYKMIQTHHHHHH
The experiment in a line: competition ELISA on coated human PTK7 protein; competitor: biotin-labelled 64A10HZ at a fixed concentration. The method, then: The human PTK7 protein was diluted to reach 1 μg/ml by using the CBS coating liquid, coated by a 96-well microtiter plate at a density of 100 μl/well, and stood overnight at 4° C.; and after the plate was washed and blocked, the biotin-labeled antibody and the to-be-detected antibody were added, and incubated for 2 h at room temperature. After the plate was washed, the secondary antibody was added for incubation, and finally was subjected to color development, then the reaction was terminated, and the absorbance at OD₄₅₀ nm was read by the microplate reader. The original data was imported into software for nonlinear curve fitting (four parameters).

B1: Hu24 (PTK7 control antibody, taken from Hu24 in the Patent CN201580030255) (antibody)
chain 1: QVQLVQSGPEVKKPGASVKVSCKASGYTFTDYAVHWVRQAPGKRLEWIGVISTYNDYTYNNQDFKGRVTMTRDTSASTAYMELSRLRSEDTAVYYCARGNSYFYALDYWGQGTSVTVSS
chain 2: EIVLTQSPATLSLSPGERATLSCRASESVDSYGKSFMHWYQQKPGQAPRLLIYRASNLESGIPARFSGSGSGTDFTLTISSLEPEDFAVYYCQQSNEDPWTFGGGTKLEIK
B1 came in with an EC50 in test [1] of 0.0133 µg/mL.

B2: 101A6HZ (anti-human PTK7 humanized antibody) (antibody, human IgG1, kappa)
heavy: not shown
light: DIVMTQSPDSLAVSLGERATINCKASQDVGSAVIWYQQKPGQSPKLLIYWASTRHTGVPDRFSGSGSGTDFTLTISSLQAEDVAVYYCQQYSSYPLTFGQGTKLEIKRTVAAPSVFIFPPSDEQLKSGTASVVCLLNNFYPREAKVQWKVDNALQSGNSQESVTEQDSKDSTYSLSSTLTLSKADYEKHKVYACEVTHQGLSSPVTKSFNRGEC
With B2, the Kd in test [2] worked out at 11.8 nM.

B3: 64A10HZ (anti-human PTK7 humanized antibody) (antibody, human IgG1, kappa, V domains shown)
VH: QVQLQESGPGLVKPSETLSLTCTVSGFSLTSYGVYWVRQPPGKGPEWLGVIWTSGNTNYNPSLKSRLTISKDNSKNQVSLKLSSVTAADTAVYYCVKHDGGNYVGVMNYWGQGTLVTVSS
VL: EIVMTQSPDFQSVTPKEKVTITCRASQSISDYLHWYQQKPDQSPKLLIKYASQSISGVPSRFSGSGSGSDFTLTINSLEAEDAATYYCQNGHSFPPTFGQGTKLEIKR
notes: Human IgG1 heavy chain constant region and human Kappa light chain constant region; expressed in CHO-S cells
Turning to B3, the “IC50 (read off the curve)” value in test [3] was roughly 0.2 µg/mL.
